Measurements from the Immune Epitope Database (IEDB).

Legend:
HLA-A*02:11 [1] = experiment: IEDB peptide-MHC binding, purified MHC/competitive/fluorescence; filed as Kd, often an IC50 or EC50 that approximates it; ≥ and ≤ were set here for values at or beyond the usual limits of such assays
HLA-A*02:12 [2] = experiment: as above
HLA-A*02:03 = experiment: as above
HLA-A*02:50 [3] = experiment: as above; settings: source organism: Pasteurella multocida subsp. multocida str. Pm70
HLA-A*02:06 = experiment: as above
HLA-A*31:01 [4] = experiment: IEDB peptide-MHC binding, purified MHC/direct/fluorescence; filed as Kd, often an IC50 or EC50 that approximates it; ≥ and ≤ were set here for values at or beyond the usual limits of such assays; settings: source organism: Pasteurella multocida
HLA-B*27:05 = experiment: as above
HLA-B*08:01 = experiment: as above
HLA-B*15:01 [5] = experiment: as above
HLA-A*69:01 [6] = experiment: as above; settings: source organism: Pasteurella multocida
HLA-B*07:02 = experiment: as above
HLA-A*26:01 [7] = experiment: as above
HLA-A*01:01 = experiment: as above
HLA-A*11:01 = experiment: as above
HLA-A*24:03 [8] = experiment: as above
HLA-B*58:01 = experiment: as above
HLA-A*02:01 [9] = experiment: as above
HLA-B*40:01 = experiment: as above
HLA-A*03:01 [10] = experiment: as above
HLA-A*02:16 = experiment: IEDB peptide-MHC binding, purified MHC/competitive/fluorescence; filed as Kd, often an IC50 or EC50 that approximates it; ≥ and ≤ were set here for values at or beyond the usual limits of such assays
HLA-B*18:01 = experiment: as above; settings: source organism: Vibrio vulnificus CMCP6
HLA-B*27:03 = experiment: as above; settings: source organism: Vibrio vulnificus CMCP6
HLA-B*46:01 [11] = experiment: as above; settings: source organism: Vibrio vulnificus CMCP6
HLA-B*15:01 [12] = experiment: as above; settings: source organism: Vibrio vulnificus CMCP6
HLA-A*26:01 [13] = experiment: as above; settings: source organism: Vibrio vulnificus CMCP6
HLA-B*57:01 [14] = experiment: as above; settings: source organism: Vibrio vulnificus CMCP6
HLA-A*24:03 [15] = experiment: as above; settings: source organism: Vibrio vulnificus CMCP6
HLA-A*02:01 [16] = experiment: as above
HLA-A*03:01 [17] = experiment: as above; settings: source organism: Vibrio vulnificus CMCP6
HLA-A*23:01 [18] = experiment: as above; settings: source organism: Vibrio vulnificus CMCP6
HLA-A*31:01 [19] = experiment: as above; settings: source organism: Vibrio parahaemolyticus AN-5034
HLA-A*69:01 [20] = experiment: as above
HLA-B*15:17 = experiment: as above; settings: source organism: Vibrio parahaemolyticus AN-5034
HLA-A*02:11 [21] = experiment: IEDB peptide-MHC binding, purified MHC/direct/fluorescence; filed as Kd, often an IC50 or EC50 that approximates it; ≥ and ≤ were set here for values at or beyond the usual limits of such assays; settings: source organism: Vibrio parahaemolyticus RIMD 2210633
HLA-B*51:01 = experiment: as above; settings: source organism: Vibrio parahaemolyticus RIMD 2210633
HLA-A*02:12 [22] = experiment: as above; settings: source organism: Vibrio parahaemolyticus RIMD 2210633
HLA-A*02:19 [23] = experiment: as above; settings: source organism: Vibrio parahaemolyticus RIMD 2210633
HLA-A*26:03 = experiment: as above; settings: source organism: Vibrio parahaemolyticus RIMD 2210633
HLA-B*44:02 = experiment: as above; settings: source organism: Vibrio parahaemolyticus RIMD 2210633
HLA-B*46:01 [24] = experiment: as above; settings: source organism: Vibrio parahaemolyticus
HLA-A*02:50 [25] = experiment: as above; settings: source organism: Vibrio parahaemolyticus RIMD 2210633
HLA-A*29:02 = experiment: as above; settings: source organism: Vibrio parahaemolyticus RIMD 2210633
HLA-B*39:01 = experiment: as above; settings: source organism: Vibrio parahaemolyticus RIMD 2210633
HLA-B*57:01 [26] = experiment: as above; settings: source organism: Vibrio parahaemolyticus
HLA-B*48:01 = experiment: as above; settings: source organism: Vibrio parahaemolyticus
HLA-A*30:01 = experiment: as above; settings: source organism: Vibrio parahaemolyticus RIMD 2210633
HLA-A*23:01 [27] = experiment: as above; settings: source organism: Vibrio parahaemolyticus RIMD 2210633
HLA-A*02:19 [28] = experiment: IEDB peptide-MHC binding, purified MHC/competitive/fluorescence; filed as Kd, often an IC50 or EC50 that approximates it; ≥ and ≤ were set here for values at or beyond the usual limits of such assays; settings: source organism: Human immunodeficiency virus 1
[29] = source organism: Pasteurella multocida subsp. multocida str. Pm70
[30] = source organism: Pasteurella multocida
[31] = source organism: Vibrio vulnificus CMCP6
[32] = source organism: Vibrio parahaemolyticus
[33] = source organism: Vibrio parahaemolyticus RIMD 2210633
[34] = source organism: Human immunodeficiency virus 1

Sequence: LLKDLMPFV
- Kd (HLA-A*02:11 [1]; [29]): ≤ 0.0001 µM
- Kd (HLA-A*02:12 [2]; [29]): ≤ 0.0001 µM
- Kd (HLA-A*02:03; [29]): ≤ 0.0001 µM
- Kd (HLA-A*02:50 [3]): ≤ 0.0001 µM
- Kd (HLA-A*02:06; [29]): ≤ 0.0001 µM
- Kd (HLA-A*31:01 [4]): 1.46 µM
- Kd (HLA-B*27:05; [30]): ≥ 20 µM
- Kd (HLA-B*08:01; [30]): ≥ 20 µM
- Kd (HLA-B*15:01 [5]; [30]): 9.23 µM
- Kd (HLA-A*69:01 [6]): 0.162 µM
- Kd (HLA-B*07:02; [30]): ≥ 20 µM
- Kd (HLA-A*26:01 [7]; [30]): 0.0131 µM
- Kd (HLA-A*01:01; [30]): ≥ 20 µM
- Kd (HLA-A*11:01; [30]): ≥ 20 µM
- Kd (HLA-A*24:03 [8]; [30]): ≥ 20 µM
- Kd (HLA-B*58:01; [30]): ≥ 20 µM
- Kd (HLA-A*02:01 [9]; [30]): 0.051 µM
- Kd (HLA-B*40:01; [30]): ≥ 20 µM
- Kd (HLA-A*03:01 [10]; [30]): ≥ 20 µM

Sequence: FGAQMGWPV
- Kd (HLA-A*02:16; [31]): 0.0062 µM
- Kd (HLA-B*18:01): ≥ 20 µM
- Kd (HLA-B*27:03): ≥ 20 µM
- Kd (HLA-B*46:01 [11]): ≥ 20 µM
- Kd (HLA-B*15:01 [12]): ≥ 20 µM
- Kd (HLA-A*26:01 [13]): ≥ 20 µM
- Kd (HLA-B*57:01 [14]): ≥ 20 µM
- Kd (HLA-A*24:03 [15]): ≥ 20 µM
- Kd (HLA-A*02:01 [16]; [31]): 0.0048 µM
- Kd (HLA-A*03:01 [17]): ≥ 20 µM
- Kd (HLA-A*23:01 [18]): ≥ 20 µM

Sequence: DTWHGFKNM
- Kd (HLA-A*31:01 [19]): ≥ 20 µM
- Kd (HLA-A*69:01 [20]; source organism: Vibrio parahaemolyticus AN-5034): 0.0223 µM
- Kd (HLA-B*15:17): ≥ 20 µM
- Kd (HLA-A*02:11 [21]): ≥ 20 µM
- Kd (HLA-B*51:01): ≥ 20 µM
- Kd (HLA-A*02:12 [22]): ≥ 20 µM
- Kd (HLA-A*02:19 [23]): ≥ 20 µM
- Kd (HLA-B*27:05; [32]): ≥ 20 µM
- Kd (HLA-B*08:01; [33]): ≥ 20 µM
- Kd (HLA-A*26:03): 0.011 µM
- Kd (HLA-B*44:02): ≥ 20 µM
- Kd (HLA-B*46:01 [24]): ≥ 20 µM
- Kd (HLA-B*15:01 [5]; [32]): ≥ 20 µM
- Kd (HLA-A*02:50 [25]): ≥ 20 µM
- Kd (HLA-A*29:02): ≥ 20 µM
- Kd (HLA-B*07:02; [32]): ≥ 20 µM
- Kd (HLA-A*26:01 [7]; [33]): 0.171 µM
- Kd (HLA-A*01:01; [32]): ≥ 20 µM
- Kd (HLA-B*39:01): ≥ 20 µM
- Kd (HLA-B*57:01 [26]): ≥ 20 µM
- Kd (HLA-B*48:01): ≥ 20 µM
- Kd (HLA-A*11:01; [32]): ≥ 20 µM
- Kd (HLA-A*24:03 [8]; [33]): ≥ 20 µM
- Kd (HLA-B*58:01; [32]): ≥ 20 µM
- Kd (HLA-A*02:01 [9]; [32]): ≥ 20 µM
- Kd (HLA-A*30:01): ≥ 20 µM
- Kd (HLA-B*40:01; [32]): ≥ 20 µM
- Kd (HLA-A*03:01 [10]; [32]): ≥ 20 µM
- Kd (HLA-A*23:01 [27]): ≥ 20 µM

Sequence: HLADQLIHQ
- Kd (HLA-A*02:11 [1]; [34]): 0.101 µM
- Kd (HLA-A*02:03; [34]): 0.311 µM
- Kd (HLA-A*02:19 [28]): ≥ 20 µM
- Kd (HLA-A*69:01 [20]; [34]): ≥ 20 µM
- Kd (HLA-A*02:01 [16]; [34]): 6.59 µM

Sequence: FLGKIWPS
- Kd (HLA-A*02:11 [1]; [34]): ≤ 0.0001 µM
- Kd (HLA-A*02:16; [34]): ≤ 0.0001 µM
- Kd (HLA-A*02:12 [2]; [34]): ≤ 0.0001 µM
- Kd (HLA-A*02:03; [34]): ≤ 0.0001 µM
- Kd (HLA-A*02:19 [28]): 0.0004 µM
- Kd (HLA-A*69:01 [20]; [34]): 2.76 µM
- Kd (HLA-A*02:06; [34]): ≤ 0.0001 µM
- Kd (HLA-A*02:01 [16]; [34]): 0.00325 µM
